Experimental findings from patent US20220289852A1 (ACCELERON PHARMA, published 2022) are described below.

Experiment in all cases: SPR (Biacore), receptor-Fc captured by anti-Fc antibody, ligand injected
The target in one assay is T1, activin A (UniProt P08476 311-426).
T1 sequence (looked up): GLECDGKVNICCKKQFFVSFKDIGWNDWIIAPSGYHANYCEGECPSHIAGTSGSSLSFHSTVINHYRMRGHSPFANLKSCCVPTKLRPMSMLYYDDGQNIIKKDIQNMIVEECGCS
On the procedure:
(§1) A Biacore™-based binding assay was used to compare ligand binding selectivity of the ActRIIB-Fc:ALK7-Fc heterodimeric complex described above with that of ActRIIB-Fc and ALK7-Fc homodimeric complexes. The ActRIIB-Fc:ALK7-Fc heterodimer, ActRIIB-Fc homodimer, and ALK7-Fc homodimer were independently captured onto the system using an anti-Fc antibody. Ligands were injected and allowed to flow over the captured receptor protein. Results are summarized in the table below, in which ligand off-rates (kd) most indicative of effective ligand traps are denoted by bold text.

The target of a further assay is T2, activin B (UniProt P09529 293-407).
T2 sequence (looked up): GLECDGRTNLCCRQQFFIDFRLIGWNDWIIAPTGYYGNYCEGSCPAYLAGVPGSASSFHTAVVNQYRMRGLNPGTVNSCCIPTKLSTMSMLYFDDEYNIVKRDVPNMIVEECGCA
On the procedure: as §1

The target in the next assay is T3, activin C (UniProt P55103 237-352).
T3 sequence (looked up): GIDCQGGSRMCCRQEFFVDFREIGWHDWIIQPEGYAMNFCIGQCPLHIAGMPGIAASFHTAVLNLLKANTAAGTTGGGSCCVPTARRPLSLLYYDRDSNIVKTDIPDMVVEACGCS
On the procedure:
as §1

Another assay addresses T4, activin AC (UniProt P08476 311-426; P55103 237-352).
T4 sequence (looked up) 1: T1 sequence (looked up)
T4 sequence (looked up) 2: T3 sequence (looked up)
On the procedure: as §1

The target of another assay is T5, BMP5 (UniProt P22003 317-454, limits assumed).
T5 sequence (looked up): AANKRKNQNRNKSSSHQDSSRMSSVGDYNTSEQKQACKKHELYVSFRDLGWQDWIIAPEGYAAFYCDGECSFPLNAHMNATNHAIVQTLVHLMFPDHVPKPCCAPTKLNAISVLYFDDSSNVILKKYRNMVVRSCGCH
As for the experimental part: as §1

In the next assay the target is T6, BMP6 (UniProt P22004 375-513, limits assumed).
T6 sequence (looked up): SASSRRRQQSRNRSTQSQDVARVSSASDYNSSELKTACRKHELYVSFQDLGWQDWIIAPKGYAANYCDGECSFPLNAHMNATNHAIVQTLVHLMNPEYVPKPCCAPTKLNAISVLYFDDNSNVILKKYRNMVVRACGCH
As for the experimental part:
as §1

Broadly, the Kd is the equilibrium constant for the complex coming apart. The low end stands for higher affinity, the high end for lower affinity. As usually defined, the koff is the first-order rate constant of dissociation. The low end stands for slow dissociation, the high end for fast dissociation. The term kon denotes a measure of how fast the partners come together. A lower kon goes with slower complex formation.

B1: ActRIIB-Fc homodimer (Fc fusion)
chain: GRGEAETRECIYYNANWELERTNQSGLERCEGEQDKRLHCYASWRNSSGTIELVKKGCWLDDFNCYDRQECVATEENPQVYFCCCEGNFCNERFTHLPEAGGPEVTYEPPPTAPT
notes: also called ActRIIB-Fc homodimeric complex; ActRIIB homodimer; not shown: linker and Fc domain of the homodimer
As for B1, the dissociation constant (Kd) in the assay with activin A is 0.011 nM; in the assay with activin B, 0.008 nM; with activin AC, 0.16 nM; with BMP5, 2.9 nM; with BMP6 it was 0.16 nM. The koff is 0.00014 s⁻¹ in the assay with activin A; 0.00016 s⁻¹ with activin B; 0.0031 s⁻¹ with activin AC; 0.075 s⁻¹ with BMP5; 0.0039 s⁻¹ with BMP6. Moreover, the kon was 1.3e+07 M⁻¹ s⁻¹ with activin A; 1.5e+07 M⁻¹ s⁻¹ with activin B; 2e+07 M⁻¹ s⁻¹ with activin AC; 2.6e+07 M⁻¹ s⁻¹ in the assay with BMP5; 2.4e+07 M⁻¹ s⁻¹ with BMP6. Also, in the assay with activin C, the binding result was “no binding”.
